According to patent publication US20120141376A1, “PROSTATE SPECIFIC TRANSCRIPTS AND THE USE THEREOF FOR PROSTATE CANCER THERAPEUTICS AND DIAGNOSTICS” (priority 2006, published 2012):

B1: No. 5: DATAS fragment; N-acetyltransferase 6; exon extension (nucleic acid, listed as Homo sapiens)
DNA: GTAAAGGCATGTGGAATCCAGGGGCAGCTTTGGCTGGCACGCAGGATCCAGAGTCAGCTCAGCTGGGCTGGTACTCAGGATCAGCTCCATCCGGTGTGTAGGGTCTAGTGTAGGGGTCAGCTTGGCTGGGCCAGGGCTCAGAGTCAGCTCTTGCCTATGCACAGGATCCAGGTTCAGCTGAGTCAGGCTGGGAGCCAAGGTCACCTGCTGCTAGGTTGCAGGTGGCTCAGTGCCAGGCTGGAGGTTAAGACCCCAGTCTCCAGGCAGTAGCATCTCTTCAGACCACAGTGGCTCTCCTCATGTTGATGCTGGCCTCTGGGATGTTCCGCGTCCTAGCTCCGCACAGCTGGGTATCTCACTCAGTCGCCACCTCGGCCTCCCAACA
B2: No. 10: DATAS fragment; transferrin receptor (p90, CD71); novel exon (nucleic acid, listed as Homo sapiens)
DNA: GTGGCGAGGCGGTTCGGGACGGAGGACGCGCTAGTGTTCTTCTGTGTGGCAGTTCAGAATGATGGATCAAGCTAGATCAGCATTCTCTAACTTGTTTGGTGGAGAACCATTGTCATATACCCGGTTCAGCCTGCTCTCC
B3: No. 14: DATAS fragment; zinc finger protein 142 (clone pHZ-49); exon extension (nucleic acid, listed as Homo sapiens)
DNA: CGGACCAGGACAAAATCATGACGATGCTCCATCCCAAGCCTTCCAGGTTACAAACCGCCTTTCCAGTTCGCTGGCTCTTATGATCCAGCTCCTGCCCGACGATGTGGACACTGTCATCACCTCCATTTTACAGATAGGAAAGCTGAGGCCCAGAGAAGCGAAGCGACTGTGTCTGTCCAAGACCACGCGCCCTCCTCCCTGTC
B4: No. 9: DATAS fragment; protein kinase C, zeta; novel exon (nucleic acid, listed as Homo sapiens)
DNA: GGGCAAAGGATGTTGCCCCTGTCCTGAAGGCTGTCGCCCGATCGCTCTATCCAAGGCTGCCCTGGGGCAGCGTCACCTGGGGGTCCTGCGGGGGCTTCTCAGCACAGCATCCAGCACTGCCACCTAGTGTGTTCCCGTCACGTCTCCTCCCCCCG
B5: No. 13: DATAS fragment; ATPase, Class V, type 10A; exon extension (nucleic acid, listed as Homo sapiens)
DNA: GGAGGAGGTCGGCATCACCAGTAACAGGAATCCCTCTCCCTTTGAAGGCAGTGATGGCCAGCGACTTTGCAGTGCCGAAATTCCGATACCTGGAGAGGCTCTTGATTCTTCACGGGCATTGGTGCTACTCCCGACTTGCCAACATGGTGCTGTACTTCTTCTACAAAAACACAATGTTCGTGGGCCTCCTGTTTTGGTTCCAGTTTTTCTGTGGCTTCTCTGCATCTACCATGATTGACCAGTGGTATCTAATCTTCTTTAATCTGCTCTTCTCGTCACCTCCAACGA
B6: No. 15: DATAS fragment; GenBank Human mRNA AF116698 (intronic hit); genomic hit (nucleic acid, listed as Homo sapiens)
DNA: CGGCGCACCTGGTACGTGGTGTATGTTCCATTTGTGCTGGCCACGGTGATGATGATGATGATGCCATCTCTCCGGCTACACTGCGAGCACAGATCACAGCTCTCTGTAGCTGATGCTGGCTCTACCCACTGTATTCGGG
B7: No. 18: DATAS fragment; golgi SNAP receptor complex member 2; exon extension (nucleic acid, listed as Homo sapiens)
DNA: GGCCTTAGGGGCACGAGGATGTGAATCGACCTACTACTTAATATAATGGCTGTGAGAAAAGGCCTCTTTCCTTTCCTTTCCACTTTTGCTCCACCCTATCAGGAGCCAGAAAGGCCTGATGGTGACAAGGTGTGAACCGTGTGGACAGTCCTGCACACAGGGCTCACTGTGGACACCTTCCCAGGGCACGCATCAGCTGTGTGAACAAAGCCACCAAAGCCATTCTTTCCCTCCCCCGC
B8: No. 1: DATAS fragment; chromosome 14 open reading frame 122; exon extension (nucleic acid, listed as Homo sapiens)
DNA: CTACCGGGGGAAGGGTCAAAGAGCGTGCCGAAGCGCTGGAGGGAGCTTCACGGACGCGAGCTAGGCACCGGCTCGCCTAATCCGGTACTAATCCGGCTTGCTGCTTCCCGTCCAGGCCTCGCTCGCCATGGGGGAGGTGGAGATCTCGGCCCTGGCCTACGTGAAGATGTGCCTGCATGCTGCCCGGTACCCACACGCCGCAGTCAACGGGCTGTTTTTGGCGCCAGCGCCGCGGTCTGGAGAATGCCTGTGCCTCACCGACTGTGTGCCCCTCTTCCACAGCCACCTGGACCTGTCCGTCATGTTGGAGGTCGCCCTCAACCAGGTGCCTCCGTTGCAT
B9: No. 8: DATAS fragment; ataxin 2-like; exon extension (nucleic acid, listed as Homo sapiens)
DNA: GTAGCAGGGCAGCAGACTTGGGAGAACGCGGGGGATACATCCGGCCCACTGGAAGAAAAGGGGGAGCTGTAGGATGGTTACTGCTGGTCAACAGCAGTGAGTACAAGGGCCTTACTCAAAACAGCAAGAAAGTTTACACACTATACAACCAGAGTCACCAACTTAAATGTCTAGAAGCTCAAGGCAGGTAACACAAGCAGGTAAATGGCCTCATGGGCATCATCGACAACTGGAATGCTTAAAGGAGTGGCAGGGATTCTGTTCCAGTCAACTCAAGCTACGCAGCAAGGCAAGCTCAGTTGACAGAATTTCCTGTAATTCAAAAGAAACTAAAAATTTTCTATGGCTTCTATTGATTTATTTATTTAGAGACAGGGTATCGCTCTGTTCCCC
B10: No. 21: DATAS fragment; GenBank human mRNA AK123820; exon extension (nucleic acid, listed as Homo sapiens)
DNA: GGCGGCAGGTCTAATCTGGCACACTTGCTAACTTCTAATAAAGAATCAAATGGTCTTCCAACTCACATAATGACTAATTCTAAAGCATGCAACCTCAAAGTACTACATTCTCCCTGTTCTAGAAATACAACCCTAGAGGGCCAGTCTTCCTTCAGCATTCAAATATTGAGTAGAACAACTGAACTGTAAGGTTCAACTAAAGGAATGCAACTGTGACTTGAGCTGTGGAACGGCTATGGCCTAAGTCAAGAATTCTCAACCTCCCAC
B11: No. 19: DATAS fragment; GenBank human mRNA AK054845; novel exon (nucleic acid, listed as Homo sapiens)
DNA: GGGGACAGGCAGAGGTTGCACTGCACTCCAGCCTGGGTGACAGATCAAGATTCTGTCTCAAGTAATAATAATGATGATGATGATGATGATGATGATGATGATAATAACACACCTTGTTAATGTTAATTCACTGTGTTAAATCAATTAACTCATTTTCTCATAATTACCCTTGAACGAGTAAGTTATTGACATTCTCTCCATGGGAAAAAAAACCCTTGGAGAAAGGTAACTTGAATATGGCCAAATGGGCAATTTGGATAGAACTGGGATTTGAACCTAGGACATCTGATTCCACATCCTTTTCATGAGCCACAATGCTCTACATGTGGTTTTATTTCTTGGATCACATGTAACACATCCATAAAAGTGCCTCCCCCCG
B12: No. 11: DATAS fragment; cadherin-like 23; novel exon (nucleic acid, listed as Homo sapiens)
DNA: GACACCCTAGCTGCAAGGGAGGTTAGAAAAAATGAGGGACAGGATTATCATGGTCAGCATATTACTTGGGGGCCAGATATATCACTTCCCACACAAAAGCAGGCCTCTGTCAGTGAGGAAGAAGTGGAGAATGGATTTGGGGTGGGCATCTGACAGCATTTGCCACACTGCCCTCCCCAATCCTAATGCAGGCCAGTCAACGCACCACCCCCACTCCCCACCCACACTCCAACCCCCACAGTCCTAGGGTCTCTCAGGGAGACCATCGGTGGAATCCATAACATTCTAAGACCCTGCAGTTTGTAGGCAAAATCAGGCTTCCTTTGGGTGCCCCCG
B13: No. 6: DATAS fragment; transmembrane protease, serine 2; exon extension (nucleic acid, listed as Homo sapiens)
DNA: GCCGAGGTCTTCCCTAAGGACAGGGAGACTTGTTGAGCTCCCAGTGTTGCCTGCAGCTCTCGCAGGGAGAGCACACTTCCCTCCCTGAGACCTCCACACGCACTACACAGATGGTCACAGCCCTATTCTCCAGCCCTGCCCCCGTCAGCTCATCCCAGCACCAACCCCTCTCCTGGGAAACCTGGATTCTCCTTACAACTGGCGGTGCCTGTGCTGAATGCAGCTCTGGAGTTCAGCTTCAGGGAAAGAAATTCCCAGCTCTGAAACTATAGGGCTCTATCAGTGCCATGGAATCCCCCTCTTATTCACCCAACGGCTTGGTTCTGCTGAACCAATTTCCCACTCCTCACTGAACCCCACCCAGGACACACAGGCGCCTGTTTCCCCTCTGGCATGCACACACTCTTCTGGAGCACACGCGACCCTCCCTAGGCCGCCTGCTTCTCGGCTCCCCTGCACA

system: HLA class I (e.g. HLA-A2) expressing adherent 293T cells; test: CTL assay on reverse transfected microarray (caspase activation, fluorescent Z-VAD); type: cell-based, human; settings: HLA-matched CD8+ T cells from prostate cancer patients incubated 4 hours on array; red fluorescent signal = positive response
Description: Additional patient samples were procured for the cytotoxic T Lymphocyte (CTL) assay. […] (PBMC) were isolated from blood drawn from patients with relevant clinical parameters, and with patient consent. Clinical data generally included patent history, physiopathology, and parameters relating to prostate cancer physiology. PBMCs were collected from 6 prostate cancer patients that met the study requirements. Duplicate samples were obtained from a single patient.
The 192 selected DATAS fragments were PCR amplified out of the library vector and directionally cloned into a eukaryotic expression vector down stream from staggered start site initiation codons. This configuration allows the DATAS fragment to be expressed in all the open reading frames, which is required because the correct reading frame is not always readily apparent.
Plasmid preparations were performed and the expression vectors containing the selcted DATAS fragment clones were re-arrayed into 96 well plates, which were subsequently used to spot glass slides for use in the CTL assay previously disclosed in International Patent Application No. PTC/US2005/032392, the disclosure of which is incorporated by reference in its entirety.
A design file containing the desired microarray positions of the DATAS expression vectors was uploaded into a high resolution scanner. The expression vectors containing the DATAS fragments were mixed with gelatin and lipofectamine and then spotted in duplicate in a pattern that matched the design file uploaded into the high resolution microarray scanner. The following positive controls, negative controls and experimental samples were spotted on the array.
The spotted arrays were then overlaid with HLA class I (e.g. HLA-A2) expressing adherent 293T cells and cultured for 48-72 hours to allow cells time to express vector-encoded transcripts.
The assay for CTL reactivity was then performed by incubating HLA-matched CD8^+ T cells from normal and prostate cancer patients on cultured reverse transfected microarray slides for 4 hours. Prior to incubation with the array, T cells from normals or patients may need to be expanded in vitro, to a small or large extent, to enhance the frequency of responding T cells. An inhibitor of activated caspase, fluorescence-tagged (sulfo-Rhodamine)-Z-VAD, is present throughout the cell incubation to bind caspases that become activated when antigen expressing adherent cells on certain spots are induced to die by the CTL. The slides are then washed to remove unbound fluorescent Z-VAD and 2-color (Green and Red) fluorescence images of the microarray slides are obtained with the microarray scanner.
Analysis and confirmation of data is then determined by visual inspection of the scanned image. The success of the reverse transfection is evaluated by observing green fluorescence at EGFP vector control spots. Then the fluorescence threshold(s) are adjusted on microarray scanner as necessary to establish relevant background and positive control signal intensities. […] Using the coordinate locations for the spots, the cDNAs yielding positive responses are identified.

| Molecule | Patient ID with positive hit |
| --- | --- |
| B1 | EYGRT |
| B2 | MSMPB |
| B3 | MSMPB |
| B4 | EYGRT |
| B5 | MSMPB |
| B6 | MSMPB |
| B7 | FRJY5 |
| B8 | EYGRT |
| B9 | MSMPB |
| B10 | EYGRT |
| B11 | EYGRT |
| B12 | MSMPB; P72 |
| B13 | EYGRT |
